According to patent US20250250358A1:

Assays:
[1] = biological target: PD-L1 on cells (UniProt Q9NZQ7); assay: flow cytometry, T24 R-WT cells incubated first with Atezolizumab Fab (50 nM); negative control [Cont.]
[2] = biological target: EGFR (UniProt P00533); assay: Fab KD, method not stated
[3] = biological target: PD-L1 on cells (UniProt Q9NZQ7); assay: flow cytometry, T24 R-WT cells incubated first with Atezolizumab Fab (50 nM); Isotype Control-647 gives 480 [Cont.]

Sequence of UniProt Q9NZQ7 (Q9NZQ7 19-290 limits assumed): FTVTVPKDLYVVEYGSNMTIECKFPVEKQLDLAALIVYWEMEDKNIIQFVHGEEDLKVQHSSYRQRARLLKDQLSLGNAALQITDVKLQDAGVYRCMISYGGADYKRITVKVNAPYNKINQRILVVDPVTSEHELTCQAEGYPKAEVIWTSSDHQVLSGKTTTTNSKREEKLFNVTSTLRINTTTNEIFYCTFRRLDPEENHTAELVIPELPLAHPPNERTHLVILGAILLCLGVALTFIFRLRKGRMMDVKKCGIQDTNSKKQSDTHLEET

With Isotype Control-647 (antibody) the Median (APC) [1] was 480.

Molecule Necitumumab Fab has a Kd [2] of 6.1 nM.

With PD-L1 (D8T4X)-647 antibody the Median (APC) [3] was 8120.

B1: Matuzumab Fab (Fab, INN chains, looked up, V domains shown)
VH: QVQLVQSGAEVKKPGASVKVSCKASGYTFTSHWMHWVRQAPGQGLEWIGEFNPSNGRTNYNEKFKSKATMTVDTSTNTAYMELSSLRSEDTAVYYCASRDYDYDGRYFDYWGQGTLVTVSS
VL: DIQMTQSPSSLSASVGDRVTITCSASSSVTYMYWYQQKPGKAPKLLIYDTSNLASGVPSRFSGSGSGTDYTFTISSLQPEDIATYYCQQWSSHIFTFGQGTKVEIK
modifications: Fab
With B1 the Kd [2] was 113 nM.
